Publication PMC3517971

How the values were obtained:
[1] = target: SpoIIE(590–827), PP2C phosphatase domain of SpoIIE from Bacillus subtilis (B. subtilis) (UniProt P37475); test: crystal structure; crystals from 0.9–1.2 M sodium acetate, 0.1 M Hepes pH 7.5; protein pre-incubated with 1–2 mM MnCl2 for 30 min; space group P6_(1)22; 2.76 Å (PDB 3T9Q)
[2] = target: SpoIIE(590–827), PP2C phosphatase domain of SpoIIE from Bacillus subtilis (B. subtilis) (UniProt P37475); test: crystal structure; crystals from 14–15% polyethylene glycol 400, 0.1 M Tris–HCl (pH 8.5), 0.2 M sodium citrate, 0–50 mM MnCl2; space group P6_(1)22, two molecules in the asymmetric unit; 2.6 Å (PDB 3T91)

## SpoIIE(590–827), PP2C phosphatase domain of SpoIIE from Bacillus subtilis (from UniProt P37475 590-827) (domain or fragment)
[1]
  stoichiometry N: 2
[2]
  stoichiometry N: 2
